Measured values published in publication PMC9930725 (Nature, 2022).
Residue numbers refer to the chain shown, from its start. Numbers in names are those of the source.

B1: PhyB N908 fragment (domain or fragment, Arabidopsis thaliana, UniProt P14713 1-908, looked up)
chain: MVSGVGGSGGGRGGGRGGEEEPSSSHTPNNRRGGEQAQSSGTKSLRPRSNTESMSKAIQQYTVDARLHAVFEQSGESGKSFDYSQSLKTTTYGSSVPEQQITAYLSRIQRGGYIQPFGCMIAVDESSFRIIGYSENAREMLGIMPQSVPTLEKPEILAMGTDVRSLFTSSSSILLERAFVAREITLLNPVWIHSKNTGKPFYAILHRIDVGVVIDLEPARTEDPALSIAGAVQSQKLAVRAISQLQALPGGDIKLLCDTVVESVRDLTGYDRVMVYKFHEDEHGEVVAESKRDDLEPYIGLHYPATDIPQASRFLFKQNRVRMIVDCNATPVLVVQDDRLTQSMCLVGSTLRAPHGCHSQYMANMGSIASLAMAVIINGNEDDGSNVASGRSSMRLWGLVVCHHTSSRCIPFPLRYACEFLMQAFGLQLNMELQLALQMSEKRVLRTQTLLCDMLLRDSPAGIVTQSPSIMDLVKCDGAAFLYHGKYYPLGVAPSEVQIKDVVEWLLANHADSTGLSTDSLGDAGYPGAAALGDAVCGMAVAYITKRDFLFWFRSHTAKEIKWGGAKHHPEDKDDGQRMHPRSSFQAFLEVVKSRSQPWETAEMDAIHSLQLILRDSFKESEAAMNSKVVDGVVQPCRDMAGEQGIDELGAVAREMVRLIETATVPIFAVDAGGCINGWNAKIAELTGLSVEEAMGKSLVSDLIYKENEATVNKLLSRALRGDEEKNVEVKLKTFSPELQGKAVFVVVNACSSKDYLNNIVGVCFVGQDVTSQKIVMDKFINIQGDYKAIVHSPNPLIPPIFAADENTCCLEWNMAMEKLTGWSRSEVIGKMIVGEVFGSCCMLKGPDALTKFMIVLHNAIGGQDTDKFPFPFFDRNGKFVQALLTANKRVSLEGKVIGAFCFLQIPS
modifications: phytochromobilin (PΦB) bound
B2: PhyB N908(L427A) (domain or fragment, Arabidopsis thaliana, UniProt P14713 1-908, looked up)
chain: B1 chain with L427A
modifications: phytochromobilin (PΦB) bound
B3: PhyB N982 fragment (domain or fragment, Arabidopsis thaliana, UniProt P14713 1-982, looked up)
chain: MVSGVGGSGGGRGGGRGGEEEPSSSHTPNNRRGGEQAQSSGTKSLRPRSNTESMSKAIQQYTVDARLHAVFEQSGESGKSFDYSQSLKTTTYGSSVPEQQITAYLSRIQRGGYIQPFGCMIAVDESSFRIIGYSENAREMLGIMPQSVPTLEKPEILAMGTDVRSLFTSSSSILLERAFVAREITLLNPVWIHSKNTGKPFYAILHRIDVGVVIDLEPARTEDPALSIAGAVQSQKLAVRAISQLQALPGGDIKLLCDTVVESVRDLTGYDRVMVYKFHEDEHGEVVAESKRDDLEPYIGLHYPATDIPQASRFLFKQNRVRMIVDCNATPVLVVQDDRLTQSMCLVGSTLRAPHGCHSQYMANMGSIASLAMAVIINGNEDDGSNVASGRSSMRLWGLVVCHHTSSRCIPFPLRYACEFLMQAFGLQLNMELQLALQMSEKRVLRTQTLLCDMLLRDSPAGIVTQSPSIMDLVKCDGAAFLYHGKYYPLGVAPSEVQIKDVVEWLLANHADSTGLSTDSLGDAGYPGAAALGDAVCGMAVAYITKRDFLFWFRSHTAKEIKWGGAKHHPEDKDDGQRMHPRSSFQAFLEVVKSRSQPWETAEMDAIHSLQLILRDSFKESEAAMNSKVVDGVVQPCRDMAGEQGIDELGAVAREMVRLIETATVPIFAVDAGGCINGWNAKIAELTGLSVEEAMGKSLVSDLIYKENEATVNKLLSRALRGDEEKNVEVKLKTFSPELQGKAVFVVVNACSSKDYLNNIVGVCFVGQDVTSQKIVMDKFINIQGDYKAIVHSPNPLIPPIFAADENTCCLEWNMAMEKLTGWSRSEVIGKMIVGEVFGSCCMLKGPDALTKFMIVLHNAIGGQDTDKFPFPFFDRNGKFVQALLTANKRVSLEGKVIGAFCFLQIPSPELQQALAVQRRQDTECFTKAKELAYICQVIKNPLSGMRFANSLLEATDLNEDQKQLLETSVSCEKQISRIVGD
modifications: phytochromobilin (PΦB) bound
B4: Arabidopsis thaliana phytochrome B, full length (natural protein, UniProt P14713 1-1172, looked up)
chain: MVSGVGGSGGGRGGGRGGEEEPSSSHTPNNRRGGEQAQSSGTKSLRPRSNTESMSKAIQQYTVDARLHAVFEQSGESGKSFDYSQSLKTTTYGSSVPEQQITAYLSRIQRGGYIQPFGCMIAVDESSFRIIGYSENAREMLGIMPQSVPTLEKPEILAMGTDVRSLFTSSSSILLERAFVAREITLLNPVWIHSKNTGKPFYAILHRIDVGVVIDLEPARTEDPALSIAGAVQSQKLAVRAISQLQALPGGDIKLLCDTVVESVRDLTGYDRVMVYKFHEDEHGEVVAESKRDDLEPYIGLHYPATDIPQASRFLFKQNRVRMIVDCNATPVLVVQDDRLTQSMCLVGSTLRAPHGCHSQYMANMGSIASLAMAVIINGNEDDGSNVASGRSSMRLWGLVVCHHTSSRCIPFPLRYACEFLMQAFGLQLNMELQLALQMSEKRVLRTQTLLCDMLLRDSPAGIVTQSPSIMDLVKCDGAAFLYHGKYYPLGVAPSEVQIKDVVEWLLANHADSTGLSTDSLGDAGYPGAAALGDAVCGMAVAYITKRDFLFWFRSHTAKEIKWGGAKHHPEDKDDGQRMHPRSSFQAFLEVVKSRSQPWETAEMDAIHSLQLILRDSFKESEAAMNSKVVDGVVQPCRDMAGEQGIDELGAVAREMVRLIETATVPIFAVDAGGCINGWNAKIAELTGLSVEEAMGKSLVSDLIYKENEATVNKLLSRALRGDEEKNVEVKLKTFSPELQGKAVFVVVNACSSKDYLNNIVGVCFVGQDVTSQKIVMDKFINIQGDYKAIVHSPNPLIPPIFAADENTCCLEWNMAMEKLTGWSRSEVIGKMIVGEVFGSCCMLKGPDALTKFMIVLHNAIGGQDTDKFPFPFFDRNGKFVQALLTANKRVSLEGKVIGAFCFLQIPSPELQQALAVQRRQDTECFTKAKELAYICQVIKNPLSGMRFANSLLEATDLNEDQKQLLETSVSCEKQISRIVGDMDLESIEDGSFVLKREEFFLGSVINAIVSQAMFLLRDRGLQLIRDIPEEIKSIEVFGDQIRIQQLLAEFLLSIIRYAPSQEWVEIHLSQLSKQMADGFAAIRTEFRMACPGEGLPPELVRDMFHSSRWTSPEGLGLSVCRKILKLMNGEVQYIRESERSYFLIILELPVPRKRPLSTASGSGDMMLMMPY
modifications: phytochromobilin (PΦB) covalently linked to Cys357

Legend:
thermal reversion rate = biological target: the molecule itself; assay: thermal reversion rate
SEC = biological target: the molecule itself; assay: SEC

| Protein | binding result (SEC) | also measured |
| --- | --- | --- |
| B1 |  | Kd (thermal reversion rate): ~26 nM |
| B2 | binds |  |
| B3 | binds |  |
| B4 |  | stoichiometry N (SEC): 2 |
